A value given as a limit tells only on which side of the number the result lay.

The first assay deals with HLA-A*02:02. Nature of the assay: IEDB peptide-MHC binding, purified MHC/competitive/radioactivity; ≥ and ≤ were set here for values at or beyond the usual limits of such assays. The following applies: source organism: Hepatitis B virus.
Broadly, the IC50 is the point on the concentration scale where inhibition reaches its midpoint. For the sequence GLSPTVWLSV, the IC50 is 0.023 µM.

For another assay, the target named is HLA-A*02:01. The assay is described as above. As to conditions: source organism: Hepatitis B virus.
In the case of GLSPTVWLSV, the IC50 was found to be 29 nM.

Staying with this assay, now noted: source organism: Mammarenavirus whitewaterense.
In the case of YVNHTGFNV, the IC50 worked out at 478 nM. On the same count and under the same terms, to YVSSIFLHL belongs 157 nM.

The assay is the same for the next values; noted with them: source organism: Vaccinia virus WR.
Regarding YMFFVIKNL, the IC50 amounted to 21 nM. Take YMMGIEYGL: the IC50 turned out to be 0.12 nM.

For YMNYYTTYI, the IC50 was found to be 1.1 nM.

Consider YMSFWCKSI, for which the IC50 is 26 nM. The same measure, in the same setting: to YQDSDVSQEV belongs 12 nM. On the same count and under the same terms, for YQLAGYILT the value was 16 nM; for YQLFSDAKA, 1790 nM. Turning to YQMLLALVAL, the half-maximal inhibitory concentration (IC50) came to 1.5 nM.

As to YQYIFLSFFA, the IC50 turned out to be 19 nM.

With YQYVRLHEM, the IC50 was found to be 9.2 nM. Same read-out and setting: to YTALHYYYL belongs 17 nM; to YTDEVYDYL, 21 nM. With YTDSIQDLL, the IC50 came to 933 nM. Turning to YTIERIFNA, the IC50 amounted to 0.56 nM. On the same count and under the same terms, for YTINCLLYI the value was 5.1 nM; for YTQDELINV, 7.3 nM; for YTYAFTKKV, 16 nM.

Take YTYFSNTILL: the IC50 stood at 189 nM.

On to YTYLIGEKI, for which the IC50 was 5000 nM. Consider YVHGDTYSL, for which the IC50 came to 71 nM. YVKTLLISM: the IC50 was determined as 1890 nM. The same measure, in the same setting: for YVLFTVMTYV the value was 1 nM; for YVLLHLLVV, 101 nM. On the same count and under the same terms, to YVMTMILFL belongs 0.065 nM. Take YVPGYSITT: the IC50 worked out at 132 nM. In the case of YVSTGESSIL, the IC50 was found to be 1360 nM.

Consider YVTKKNNNI, for which the IC50 came to 505 nM.

For another assay, the target named is HLA-A*02:03. Described as above. The following applies: source organism: Hepatitis B virus.
As to SILSPFLPLL, the IC50 turned out to be 0.016 µM. SLNFLGGTTV: the IC50 was 0.00067 µM.

Another assay concerns the target HLA-A*02:01. Nature of the assay: IEDB peptide-MHC binding, cellular MHC/competitive/fluorescence; ≥ and ≤ were set here for values at or beyond the usual limits of such assays. The following applies: source organism: Mammarenavirus brazilense.
In turn, AINIALIAV showed an IC50 of 8.3 µM.

Still in this assay, the particulars now being: source organism: Vaccinia virus WR.
Regarding AAASSTHRKV, the IC50 was at least 70 µM. As for AAITDAAVA, the IC50 came out at 18.6 µM. Regarding AAITDAAVAV, the IC50 was 5.31 µM. On the same count and under the same terms, for AASKQQMLM the value was at least 70 µM; for AASPMLYQLL, 16 µM; for AASSTHRKVA, at least 70 µM. On the same count and under the same terms, to AIDFGNGADL belongs 46.8 µM. Still for that read-out and setting: for AIFTDASTVA the value was 18.5 µM. For AIIRQRNDEI, the IC50 stood at 17.4 µM. On the same count and under the same terms, to AIKCEGLDV belongs 13.6 µM; to AIMFKDDNI, 9.74 µM. AIMFKDDNII came in with an IC50 of 43.8 µM. The sequence ALNISSTKT returned an IC50 of 21.1 µM.

ALSDACKKIL returned an IC50 of 17.9 µM.

With AQSKSSLLHA, the IC50 stood at 32.9 µM. Still for that read-out and setting: to ATDPDADAI belongs 39.1 µM; to ATDPDADAIA, at least 70 µM. Take ATESDAIRT: the IC50 amounted to 10.8 µM. ATLGPANRI: the IC50 is 17 µM. On the same count and under the same terms, for ATVMNNLSEL the value was 11 µM. Take ATYHIIIVA: the IC50 was 6.42 µM.

AVAVAAASST came in with an IC50 of 51.7 µM. In turn, AVCNLASVA gave a half-inhibitory concentration (IC50) of 17.8 µM. On the same count and under the same terms, to AVEHIPTMKI belongs 14.3 µM; to AVNEEWLTA, 17.3 µM; to CIEYVTLNA, 11.1 µM. Same read-out and setting: for CIKSHSVSLV the value was at least 70 µM; for CIRISMVISL, 6.22 µM. CISQHQHLAI registered an IC50 of 11 µM. Still for that read-out and setting: to CMSANEAAIT belongs 6.71 µM; to CTVPTMNNA, 16.1 µM.

Turning to CVDNHLGAT, the IC50 is 52.1 µM. Still for that read-out and setting: to CVVYPGNGFV belongs 24.9 µM; to DAAVAVAAA, 5.2 µM.

In turn, DACKKILSA displayed an IC50 of 14.4 µM. Sequence DAFSREYSM had an IC50 of 7.57 µM. Same read-out and setting: to DAFSREYSMT belongs at least 70 µM; to DALAKNASEL, 61.8 µM; to DANVVSSST, 7.63 µM. With DANVVSSSTI, the IC50 is at least 70 µM. On the same count and under the same terms, to DASLMDMIT belongs 10.5 µM; to DAYNIADAA, at least 70 µM.

In turn, DIDEILGIA displayed an IC50 of at least 70 µM. Still for that read-out and setting: to DIEPDLENNL belongs 54.4 µM; to DIGTVKDGRL, at least 70 µM. The same measure, in the same setting: to DIIDFLEGAL belongs 23.2 µM; to DILANRDST, at least 70 µM; to DILANRDSTL, 34.5 µM.

Turning to DINSDNSNI, the IC50 amounted to 24.8 µM. Still for that read-out and setting: for DIPVNNNIVL the value was at least 70 µM; for DIRTLLPIL, 37.6 µM. The same measure, in the same setting: for DIRTLLPILL the value was 50.6 µM; for DISMSLYKDL, 9.88 µM. Still for that read-out and setting: for DIVGLDLENL the value was 16.6 µM; for DIVSKLTFL, 7.81 µM. Sequence DIYYNGNKML gave an IC50 of 19.6 µM.

With DLAFLIKFIT, the IC50 was determined as 6.32 µM. The same measure, in the same setting: for DLEKYFYGEI the value was at least 70 µM; for DLENLYAVT, 6.55 µM.

Sequence DLENNLVKL gave an IC50 of 16.2 µM.

The values above are taken from the Immune Epitope Database (IEDB).
